Measurements as given in publication doi:10.1101/332304 (bioRxiv, 2018).

Molecular target: T1, (NPNA)2 peptide (Plasmodium falciparum)
T1 chain: NPNANPNA
Assay: ITC

binding result: binds
B1: Fab311 inter-Fab contact residue reverted (Fab311R) (Fab, V domains shown)
VH: QVQLVESGGGVVPPGRSLRLSCATSGFTFSSYGMHWVRQAPGKGLEWVAIIWYDGSNKFYAASVKGRFTISRDNSKNTLYLQMNSLRVEDTAVYYCARAAYYDTSGYGDYWGQGTLVTVSS
VL: QSVLTQPPSVSGAPGQTVTISCTGGSSNIGAGYDVHWYQQLPGTAPKLLIYGNINRPSGVPDRFSGSKSGTSASLAITGLQAEDEADYYCQSYDSSLSGSWVFGGGTKLTVL
